Assay results published in paper doi:10.1101/2022.06.07.494932.

What was measured:
[1] = target: α-Synuclein A53T, unlabelled (human) (UniProt P37840); test: ELISA
[2] = target: α-Synuclein WT, unlabelled (human) (UniProt P37840); test: ELISA

Row | intracellular α-Syn oligomer concentration after 3 days [1] | intracellular α-Syn oligomer concentration after 1 day [2] | intracellular α-Syn oligomer concentration after 3 days [2] | Substance
1 | 16.3 nM |  |  | α-Synuclein A53T, unlabelled (from UniProt P37840 1-140) (natural protein)
2 |  | 12.3 nM | 13.1 nM | α-Synuclein WT, unlabelled (from UniProt P37840 1-140) (natural protein)
